Molecular target: NAA15-mCherry (rice (Oryza sativa, japonica cultivar Zhonghua 11))
Assay: FRET or BRET; FLIM-FRET in rice protoplasts, donor NAA10-eGFP and acceptor NAA15-mCherry co-expressed with pRTV-RESIS, 16 h after transfection

NAA10-eGFP (natural protein)
mean fluorescence lifetime of the donor (co-expressed with RESIS): 2.45 ns
